From the DeepSol protein solubility set

test: soluble on expression in E. coli; label from the status in PepcDB or PDB records

Row | Sequence | soluble on expression in E. coli
1 | MYAALFPGQGSHRVGMGRALYEASPAAKEVLDRAEAALPGLLKLMWEGPEEALTLTENQQPALLAAGYAAYRAFLEAGGKPPALPEGHSLGEWTAHVAAGTLELEDALRLVRLRGRYMQEAVPVGEGAMAAVLKLPLEEIQKALEGLEGVEIANLNAPEQTVISGRRQAVEEAAERLKERRARVVFLPVSAPFHSSLMAPARKRLAEDLAQVPLRRPRFPVYSNVTARPEEDPERIRALLLEQITAPVRWVEILRDMEARGVKRFLEFGSGEVLKGLVLRTLKEAEALSVQDPDSLRKALEVERA | soluble
2 | MYADEVDKDRRTFKKNFSSARGSGIDGKWKRDMFQTANRSPKQNFTTKRRAQTNFVTKAGAAAAGLATRNISTASIRGRTAPAVVREIHTGPSTLIIKNLATTVTQEDLEELFEQYEPELVQLHYGPTGESNGCADLIVPHAQVAIIQKALEGVLLDGEPIEVLEANPPKQVSVFDRIKKVSRGNDFKAKNMRVVVKSKGGFQKRGARGDF | not soluble
3 | MYCIGCGAKIQTEAKNALGFLPAGALKKKIAERDQMEAVQAGDEGSEASIKTEDLYCQRCFRLRHYNEIAPTSLTDADFLRLLKEIGQHDALIVNVVDIFDFNGSLIPNLHKLTGGNDLLMVANKRDVLPKSLKVGKLTAWLREQAASRSLKPKDILVTSAQNKDDVAELMEAIEYYRRGRDVYVVGVTNVGKSTLINAIIKSASGSEDVITTSRFPGTTLDKIEIPLDEDSALIDTPGIIHRGQIAHYLEPEDLKYVSPRKEIKPKTYQLDPEQTLFFGGLARFDFISGERQGMTAYFDNEINVHRTKLEGATEFYEKHKGELLAPALVGAKLVRREFKITDKSDIVFSGLGWVRVPQKAVVAAWVPEGVDVVVRKALIGLEHHHHHH | soluble
4 | MYDVVGVRFKKAGKVYYFDPNQFDISENEFVIVETVRGIEYGKVVITKKQVDENDVVLPLKKVIRIANENDRTIVEENKHAAKEAYQVCQQKVVEHNLDMKLVDVEYTFDRNKIIFYFTADGRIDFRELVKDLAAIFRTRIELRQIGVRDEAKMLGGIGPCGRMLCCSTFLGDFEPVSIKMAKDQNLSLNPAKISGLCGRLMCCLKYENDEYEAAKEQLPDLDQRIQTPHGTGRVIGLNILERLIQVELVDKERIVEYTLDELVNKGVVSSQTTDLEHHHHHH | not soluble
5 | MYEAHFGLKQLPFTLTPNTSLFHGLSPHYEAIHTVLSAISMGEGIIKVTGEVGTGKTLVCRMLINELPSNVELLYLPNPVMNGHELRQALAKELWLDQSGDDIALIDRIHEKIIDLHAEGKLVVVFIDEAQALSDEALETLRLFGNLETDYKKLLQIVLFGQPELDERLQQHNLRQLRQRITFSALLRALNMNETVAYIRYRIAESGCENNPFSLVQMKAIWKATNGIPRLINQVCHKSLLIAFSEQVNNVPSKAVFNAIIDTADTVKPKHYFPTFWGWRVSLEHHHHHH | soluble
6 | MYEGKVGFDFLGFTVRQFPVGKYHSGKSSSGKLLGYKTLITPSKAKLKIHAQKIGKLIDEHKAVPQSDLIAHLNPVIRGWTNYYSCVVSKRIFNQADTTLFSQLKAWAEHRHPNKSSRWSCQKYWQTVGSDNWVFKPHNQKIRLLKHRETRIVRHILEHHHHHH | not soluble
7 | MYEIIRMGVRNMLITFHSKVAAEVLMRTDDAAPLLRAAGKSFRDAIPERGVFTADQLQSAITGLERAIAAADRSPPDDDEPHPDKEPVHPIELAVGLHQRAFPLLDMMRKTAAAGADLTWEVSRGW | not soluble
8 | MYGPGYAPYYGSPYGDPCYGPAYGPAYGPTYVQPIAQPVYVHDTRAEEACCAGACCMALFCCCAMNS | soluble
9 | MYKHIVKRGETIASIARDYRTSVEALLRANGLTAASVIFPGQEIVIPHLPPKGSIPYTIHISISRRQLTLKHRGRTIRTYPIGVGKMVTATPVGDFVIVNRQPNPGGPFGAMWLSLSKIHYGIHGTNDPSSIGKYVSKGCIRMHNKDVLELASIVPNGTEVFIRP | not soluble
10 | MYKTFYSLSREPFAKETDPSEAYQGAAFQEALRALEYVKRTRGIGLLIGEPGAGKTFALRALKESLNPSLYHVVYFPLSTGGVMDFYRGLALGLGEEPKYRKVDLFRQIQQAIERLHHERRITPVFILDEMHLAKDAFLQDIAILFNFEMDSTNPFVLILAGLPHLQGKLRLNQHRPLDQRIIMRYRMGPMEKEEVAGYIEHRMKQAGAKHPIFTPSALEAIALQSRGWPRVINTLATTCLLYGHQLKKDVIDEEVVRMAAEEMGY | not soluble
11 | MYLGRHFLAMTSKALFDTKILKVNPLSIIFSPDAHIDGSLPTITDPETEAALVEAARIIRDTDETVAFPTETVYGLGGSALNDNSVLSIYRAKNRPSDNPLITHVSSIDQLNRKVFNQPHLSGTSLFDNIPSIYRPLISSLWPGPLTILLPVPSSEHSALSKLTTADQPTFAVRIPANPVARALIALSDTPIAAPSANASTRPSPTLASHVYHDLKDKIPIILDGGACKVGVESTVVDGLCNPPTLLRPGGFTYEEIVKLGGEAWSLCKVENKKTVEKGEKVRTPGMKYRHYSPSAKVVLLVPHCEGDGILKGVDRMERLKRLIETELKANSNIKKIAILTSLKLRDSDLQSKIFNEPDFSSKTFIIERLGQSGEEIQTNLFAALRKVDENDKVDLIFVEGINEEGEGLAVMNRLRKAAANNCIQF | not soluble
12 | MYLIEPIRNGKRITDGAVALAMQVYVQENLFLDDDILFPYYCDPKVEIGKFQNAVVETNQEYLKEHHIPVVRRDTGGGAVYVDSGAVNICYLINDNGIFGDFKRTYQPAIEALHHLGATEVEMSGRNDLVIDGKKVSGAAMTIANGRVYGGYSLLLDVDFEAMEKALKPNRKKIESKGIRSVRSRVGNIREHLAPQYQGITIEEFKDLMVCQLLQIETISQAKRYDLTEKDWQQIDALTERKYHNWEWNYGNAPQYRYHRDGRFTGGTVDIHLDIKKGYIAACRIYGDFFGKADIAELEGHLIGTRMEKEDVLATLNAIDLAPYLGAITAEELGDLIFS | soluble
13 | MYLPAHFAETRPEELARIIRAHPLGMLVTQDAQGLDADHLPFEFDPDAGPHGTLIAHVARANTLWQRCPDGSAVMVVFRGAEGYISPNWYPSKHEAHRQVPTWNYEVVHAHGTLAVRDDERFVRGVVARLTRRHEAGEPRPWKMTDSTPEYIDSMLRNIVGIEVAITSLVGKRKLSQNKDERDRLGAVQALQARGQDTLAQSMARAELEHHHHHH | not soluble
14 | MYNISFTPDRPLTYHLEDDQSLARLSLVPGRGGLVTEWTVQGQPILYFDRERFQDPSLSVRGGIPILFPICGNLPQDQFNHAGKSYRLKQHGFARDLPWEVIGQQTQDNARLDLRLSHNDATLEAFPFAFELVFSYQLQGHSLRIEQRIANLGDQRMPFSLGFHPYFFCREKLGITLAIPANDYLDQKTGDCHGYDGQLNLTSPELDLAFTQISQPRAHFIDPDRNLKIEVSFSELYQTLVLWTVAGKDYLCLEPWSGPRNALNSGEQLAWVEPYSSRSAWVNFQVSTELEHHHHHH | soluble
15 | MYRFLSGIKVVEIAGLAPVPHCGMMLADFGADVTVIDKKNPAIEQRLNRGKTMKQLDLKNPEDIKKVRDLCQTSDVLLDPYRPGTLEKMGLDPSTLWNNNKGLIICKISGYGQTGRMSQETGHDINYVALSGMLPTFSGVNATRPWPPANMLADFAGGGLSAAFGILSAIYARSHNGGKGCLLDCSMTEGVAYLSSFVQHYYDQPNLFTDKYALFSGECPIYRTYKTKDDKFVAVGAVEPKFYQNLFKLLNVDGRDLFVNPGKITEDLESRFLQKTRDKWANIFKGQECCVTPVLDIHEVGSYGQHVDRNSFTKTSSNWIANPSPRVWTQDELAALSSKK | not soluble
16 | MYRISQLAELVGLSRTTLLYYEKLGLIKGERLNNGYRQYSEKDAQRLVLLQNLQAGGLTLKECQACLDAKVNREVLVERLEQLDQEIEQKQNSRQLLAALLGESSLTDWHESLDQLAPEAHIEWLMKQGFDEKQAMRLKWLSKDMNEHERYMQDFDLIFKELERWGPGSESDTLKALQKVPNKSMTLLEIGCGQGIATELFARHTDAMITAVDNEEFALKHLMEKMQQNGLEDKITTVCADMAKMPFETKSFDLIWSEGSAYIMGVQNALKAWKPLLSEDGVLVVSDLVWSTDKPSEGALSFWKKEYPDMVSVSERIKHAQQAGYEVIEHFSLSDAAWEAYYHPLIERLDTLKDKLIDSPVLIDFENEITAFKQRANEFDYEIFILRSR | not soluble
17 | MYRSFFYPTRLALLAVGRNFMPMAWWMPASKEPFRFLLAVDRKNHTLSLLRELSEAALAFYPWEERAWVVRAGYLSGGRVDKARRLGVPLRPACCLAHTQVPEGALAVYEMRVSEWPWDGDHALFMGEVVHVEGSAEAKERPILFLGFRDFATLGERWRFRPGGAKPLPREERGKP | soluble
